Measurements published in patent US20130011427A1 (priority 2009, published 2013).

What was measured:
[1] = target: HLA-A24 (HLA-A*2402 with human β2-microglobulin) (human); experiment: cell-based or functional assay
[2] = target: HLA-B7 (chimeric HLA-B*0702 / H-2K^d heavy chain) (human; murine) (UniProt P01902); experiment: cell-based or functional assay
[3] = target: HLA-DR2 (chimeric HLA-DRA1*0101/DRB1*1501 with I-E domains) (human; murine) (UniProt Q8BHN5); experiment: cell-based or functional assay
Sequence of UniProt Q8BHN5 (Q8BHN5 whole entry, stated change not applied): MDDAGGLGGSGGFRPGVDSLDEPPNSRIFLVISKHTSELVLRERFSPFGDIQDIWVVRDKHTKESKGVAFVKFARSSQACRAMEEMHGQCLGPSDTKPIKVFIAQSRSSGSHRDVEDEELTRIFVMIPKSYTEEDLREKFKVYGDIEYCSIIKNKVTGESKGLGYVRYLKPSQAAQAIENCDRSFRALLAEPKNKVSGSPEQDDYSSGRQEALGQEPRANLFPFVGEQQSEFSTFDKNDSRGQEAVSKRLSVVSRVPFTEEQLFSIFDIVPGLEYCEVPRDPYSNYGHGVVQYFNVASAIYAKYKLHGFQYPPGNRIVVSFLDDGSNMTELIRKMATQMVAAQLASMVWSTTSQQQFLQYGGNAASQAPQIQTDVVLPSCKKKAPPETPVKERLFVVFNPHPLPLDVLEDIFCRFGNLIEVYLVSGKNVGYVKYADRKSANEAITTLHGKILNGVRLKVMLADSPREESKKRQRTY

[4] = target: HLA-DR4 (HLA-DRA*0101 / HLA-DRB1*0401) (human); experiment: cell-based or functional assay
[5] = target: HLA-DR3 (HLA-DRA*0101 / HLA-DRB1*0301) (human); experiment: cell-based or functional assay
[6] = test system: HLA-A24/huCD8α (HLA-A*2402) Tg mice, CD4-depleted splenocytes; format: cell-based, mouse
[7] = test system: HLA-DR4/huCD4 (DRB1*0401) Tg mice, CD8-depleted splenocytes; format: cell-based, mouse
[8] = test system: HLA-DR2 (DRB1*1501) Tg mice, CD8-depleted splenocytes; format: cell-based, mouse
[9] = target: HLA-A2.1 (HHD monochain) (human; murine); experiment: cell-based or functional assay
[10] = test system: HLA-B7 (HLA-B*0702) Tg mice, CD4-depleted splenocytes; format: cell-based, mouse
[11] = test system: HLA-DR3 (DRB1*0301) Tg mice, CD8-depleted splenocytes; format: cell-based, mouse
[12] = test system: HLA-A2.1 (HLA-A*0201) Tg mice, CD4-depleted splenocytes; format: cell-based, mouse

Sequence of UniProt P01902 (P01902 whole entry, stated change not applied): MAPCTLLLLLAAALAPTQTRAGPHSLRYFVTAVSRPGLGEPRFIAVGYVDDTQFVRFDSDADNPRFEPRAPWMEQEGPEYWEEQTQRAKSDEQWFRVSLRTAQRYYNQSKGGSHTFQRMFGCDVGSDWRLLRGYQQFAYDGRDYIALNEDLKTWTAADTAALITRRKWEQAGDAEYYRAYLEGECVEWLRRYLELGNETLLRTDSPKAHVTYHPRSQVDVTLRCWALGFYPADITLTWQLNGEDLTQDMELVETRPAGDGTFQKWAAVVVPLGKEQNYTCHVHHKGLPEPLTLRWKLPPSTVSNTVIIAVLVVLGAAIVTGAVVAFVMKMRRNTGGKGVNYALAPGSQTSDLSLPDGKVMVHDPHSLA

## WNV prM 129-145 peptide
[1]
  IFN-γ ELISpot (SFC/10^6): 71 SFC/10^6
[2]
  IFN-γ ELISpot (SFC/10^6): 31 SFC/10^6
[3]
  IFN-γ ELISpot (SFC/10^6): 62 SFC/10^6

## WNV NS4b 63-80 peptide
[4]
  IFN-γ ELISpot (SFC/10^6): 92 SFC/10^6
[5]
  IFN-γ ELISpot (SFC/10^6): 386 SFC/10^6

## WNV NS5 145-162 peptide
[2]
  IFN-γ ELISpot (SFC/10^6): 50 SFC/10^6

## VFGGITYTDVLRYVILV [NS2a 45-61]
[6]
  T cell activation of HLA transgenic mice (SFC/10^6) IFN-γ ELISpot, A24: 243 ± 196 SFC/10^6
[7]
  T cell activation of HLA transgenic mice (SFC/10^6) IFN-γ ELISpot, DR4: 74 ± 11 SFC/10^6
[8]
  T cell activation of HLA transgenic mice (SFC/10^6) IFN-γ ELISpot, DR2: 307 ± 119 SFC/10^6

## WNV E 486-501 peptide
[5]
  IFN-γ ELISpot (SFC/10^6): 244 SFC/10^6
[3]
  IFN-γ ELISpot (SFC/10^6): 214 SFC/10^6
[9]
  IFN-γ ELISpot (SFC/10^6): 323 SFC/10^6

## GGVLWDTPSPKEYKK [NS3 1-15]
[10]
  T cell activation of HLA transgenic mice (SFC/10^6) IFN-γ ELISpot, B7: 45 ± 12 SFC/10^6

## TWAENIQVAINQVRAII [NS5 863-879]
[11]
  T cell activation of HLA transgenic mice (SFC/10^6) IFN-γ ELISpot, DR3: 121 ± 2 SFC/10^6
[6]
  T cell activation of HLA transgenic mice (SFC/10^6) IFN-γ ELISpot, A24: 79 ± 11 SFC/10^6
[7]
  T cell activation of HLA transgenic mice (SFC/10^6) IFN-γ ELISpot, DR4: 33 ± 1 SFC/10^6

## WNV NS5 828-843 peptide
[2]
  IFN-γ ELISpot (SFC/10^6): 39 SFC/10^6

## WNV prM 152-167 peptide
[4]
  IFN-γ ELISpot (SFC/10^6): 117 SFC/10^6
[5]
  IFN-γ ELISpot (SFC/10^6): 90 SFC/10^6
[3]
  IFN-γ ELISpot (SFC/10^6): 269 SFC/10^6
[9]
  IFN-γ ELISpot (SFC/10^6): 318 SFC/10^6

## ILPSVVGFWITLQYTKR [NS2b 115-131]
[6]
  T cell activation of HLA transgenic mice (SFC/10^6) IFN-γ ELISpot, A24: 56 ± 2 SFC/10^6
[12]
  T cell activation of HLA transgenic mice (SFC/10^6) IFN-γ ELISpot, A2: 108 ± 60 SFC/10^6

## WNV NS5 153-168 peptide
[2]
  IFN-γ ELISpot (SFC/10^6): 112 SFC/10^6
[3]
  IFN-γ ELISpot (SFC/10^6): 250 SFC/10^6
[9]
  IFN-γ ELISpot (SFC/10^6): 332 SFC/10^6

## WMEDKTPVEKWSDVPY [NS5 828-843]
[10]
  T cell activation of HLA transgenic mice (SFC/10^6) IFN-γ ELISpot, B7: 39 ± 14 SFC/10^6

## WNV E 434-451 peptide
[5]
  IFN-γ ELISpot (SFC/10^6): 79 SFC/10^6
[3]
  IFN-γ ELISpot (SFC/10^6): 116 SFC/10^6

## WNV NS2a 168-183 peptide
[5]
  IFN-γ ELISpot (SFC/10^6): 231 SFC/10^6
[3]
  IFN-γ ELISpot (SFC/10^6): 556 SFC/10^6

## WNV NS5 470-486 peptide
[1]
  IFN-γ ELISpot (SFC/10^6): 183 SFC/10^6

## DTACLAKSYAQMWLLLYF [NS5 755-772]
[6]
  T cell activation of HLA transgenic mice (SFC/10^6) IFN-γ ELISpot, A24: 132 ± 62 SFC/10^6

## PAAPSYTLKLGEYGEVTV [E 171-188]
[12]
  T cell activation of HLA transgenic mice (SFC/10^6) IFN-γ ELISpot, A2: 279 ± 217 SFC/10^6
[10]
  T cell activation of HLA transgenic mice (SFC/10^6) IFN-γ ELISpot, B7: 996 ± 100 SFC/10^6

## WNV E 171-188 peptide
[2]
  IFN-γ ELISpot (SFC/10^6): 996 SFC/10^6
[9]
  IFN-γ ELISpot (SFC/10^6): 279 SFC/10^6

## GKSRAVNMLKRGMPRVL [C 9-25]
[10]
  T cell activation of HLA transgenic mice (SFC/10^6) IFN-γ ELISpot, B7: 43 ± 17 SFC/10^6

## VLGVATFFCWMAEVPGTK [NS4a 86-103]
[6]
  T cell activation of HLA transgenic mice (SFC/10^6) IFN-γ ELISpot, A24: 65 ± 30 SFC/10^6
[7]
  T cell activation of HLA transgenic mice (SFC/10^6) IFN-γ ELISpot, DR4: 63 ± 1 SFC/10^6

## CDIGESSSSAEVEEHRTI [NS5 145-162]
[10]
  T cell activation of HLA transgenic mice (SFC/10^6) IFN-γ ELISpot, B7: 50 ± 22 SFC/10^6

## WNV NS2b 107-124 peptide
[4]
  IFN-γ ELISpot (SFC/10^6): 163 SFC/10^6
[1]
  IFN-γ ELISpot (SFC/10^6): 50 SFC/10^6
[2]
  IFN-γ ELISpot (SFC/10^6): 81 SFC/10^6

## WNV NS5 863-879 peptide
[4]
  IFN-γ ELISpot (SFC/10^6): 33 SFC/10^6
[1]
  IFN-γ ELISpot (SFC/10^6): 79 SFC/10^6
[5]
  IFN-γ ELISpot (SFC/10^6): 121 SFC/10^6

## WNV E 195-212 peptide
[4]
  IFN-γ ELISpot (SFC/10^6): 53 SFC/10^6
[1]
  IFN-γ ELISpot (SFC/10^6): 137 SFC/10^6

## GIDTNAYYVMTVGTKTFL [E 195-212]
[6]
  T cell activation of HLA transgenic mice (SFC/10^6) IFN-γ ELISpot, A24: 137 ± 70 SFC/10^6
[7]
  T cell activation of HLA transgenic mice (SFC/10^6) IFN-γ ELISpot, DR4: 53 ± 16 SFC/10^6

## WNV NS5 763-780 peptide
[4]
  IFN-γ ELISpot (SFC/10^6): 91 SFC/10^6
[2]
  IFN-γ ELISpot (SFC/10^6): 36 SFC/10^6

## SAEVEEHRTIRVLEMV [NS5 153-168]
[12]
  T cell activation of HLA transgenic mice (SFC/10^6) IFN-γ ELISpot, A2: 332 ± 52 SFC/10^6
[10]
  T cell activation of HLA transgenic mice (SFC/10^6) IFN-γ ELISpot, B7: 112 ± 72 SFC/10^6
[8]
  T cell activation of HLA transgenic mice (SFC/10^6) IFN-γ ELISpot, DR2: 250 ± 24 SFC/10^6

## FACSTKAIGRTILKENIK [E 119-136]
[6]
  T cell activation of HLA transgenic mice (SFC/10^6) IFN-γ ELISpot, A24: 179 ± 136 SFC/10^6

## PTIDVKMMNMEAANLAEV [E 39-56]
[6]
  T cell activation of HLA transgenic mice (SFC/10^6) IFN-γ ELISpot, A24: 137 ± 124 SFC/10^6
